Experimental data as given in the supplement of paper PMC10567573.

B1: KLHL14 (parent)
chain: YVIGGRNETGYLSSVECYNLETNE

Variants of: B1
Assay: protein stability index of a GFP-peptide fusion (GPS, HEK-293T) (PSI 1-6); higher = more stable
Settings: c terminus: a fixed tail appended
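Note: lentivirally expressed fusions sorted by FACS into six bins by GFP to DsRed ratio, PSI derived from sequencing read proportions per bin multiplied by bin number.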

Variant	protein stability index
YVIGGRNETGYLSKVECYNLETNE [S14K]	1.35
YVIGGRNETGYLSLVECYNLETNE [S14L]	1.75
YVIGGRNETGYLSMVECYNLETNE [S14M]	2.3
YVIGGRNETGYLSNVECYNLETNE [S14N]	2.12
YVIGGRNETGYLSPVECYNLETNE [S14P]	1.61
YVIGGRNETGYLSQVECYNLETNE [S14Q]	2.5
YVIGGRNETGYLSRVECYNLETNE [S14R]	1.58
YVIGGRNETGYLSTVECYNLETNE [S14T]	1.99
YVIGGRNETGYLSVVECYNLETNE [S14V]	2.08
YVIGGRNETGYLSWVECYNLETNE [S14W]	2.88
YVIGGRNETGYLSYVECYNLETNE [S14Y]	2.01
YVIGGRNETGYLSSAECYNLETNE [V15A]	1.76
YVIGGRNETGYLSSCECYNLETNE [V15C]	1.66
YVIGGRNETGYLSSDECYNLETNE [V15D]	2.95
YVIGGRNETGYLSSEECYNLETNE [V15E]	2.69
YVIGGRNETGYLSSFECYNLETNE [V15F]	1.52
YVIGGRNETGYLSSGECYNLETNE [V15G]	2.05
YVIGGRNETGYLSSHECYNLETNE [V15H]	2.24
YVIGGRNETGYLSSIECYNLETNE [V15I]	1.83
YVIGGRNETGYLSSKECYNLETNE [V15K]	2.12
YVIGGRNETGYLSSLECYNLETNE [V15L]	1.9
YVIGGRNETGYLSSMECYNLETNE [V15M]	1.84
YVIGGRNETGYLSSNECYNLETNE [V15N]	2.46
YVIGGRNETGYLSSPECYNLETNE [V15P]	2.46

Variant	protein stability index
YVIGGRNETGYLSSQECYNLETNE [V15Q]	2.49
YVIGGRNETGYLSSRECYNLETNE [V15R]	2.01
YVIGGRNETGYLSSSECYNLETNE [V15S]	2.5
YVIGGRNETGYLSSTECYNLETNE [V15T]	1.74
YVIGGRNETGYLSSWECYNLETNE [V15W]	2.21
YVIGGRNETGYLSSYECYNLETNE [V15Y]	1.5
YVIGGRNETGYLSSVACYNLETNE [E16A]	1.27
YVIGGRNETGYLSSVCCYNLETNE [E16C]	2.58
YVIGGRNETGYLSSVDCYNLETNE [E16D]	2.41
YVIGGRNETGYLSSVFCYNLETNE [E16F]	3.4
YVIGGRNETGYLSSVGCYNLETNE [E16G]	1.54
YVIGGRNETGYLSSVHCYNLETNE [E16H]	1.62
YVIGGRNETGYLSSVICYNLETNE [E16I]	1.83
YVIGGRNETGYLSSVKCYNLETNE [E16K]	1.28
YVIGGRNETGYLSSVLCYNLETNE [E16L]	2.09
YVIGGRNETGYLSSVMCYNLETNE [E16M]	1.45
YVIGGRNETGYLSSVNCYNLETNE [E16N]	2.33
YVIGGRNETGYLSSVPCYNLETNE [E16P]	2.45
YVIGGRNETGYLSSVQCYNLETNE [E16Q]	1.96
YVIGGRNETGYLSSVRCYNLETNE [E16R]	2.16
YVIGGRNETGYLSSVSCYNLETNE [E16S]	2.18
YVIGGRNETGYLSSVTCYNLETNE [E16T]	1.96
YVIGGRNETGYLSSVVCYNLETNE [E16V]	3.5
YVIGGRNETGYLSSVWCYNLETNE [E16W]	2.93

Variant	protein stability index
YVIGGRNETGYLSSVYCYNLETNE [E16Y]	1.84
YVIGGRNETGYLSSVEAYNLETNE [C17A]	2.06
YVIGGRNETGYLSSVEDYNLETNE [C17D]	2.82
YVIGGRNETGYLSSVEEYNLETNE [C17E]	2.22
YVIGGRNETGYLSSVEFYNLETNE [C17F]	1.66
YVIGGRNETGYLSSVEGYNLETNE [C17G]	2.8
YVIGGRNETGYLSSVEHYNLETNE [C17H]	2.08
YVIGGRNETGYLSSVEIYNLETNE [C17I]	2.5
YVIGGRNETGYLSSVEKYNLETNE [C17K]	2.28
YVIGGRNETGYLSSVELYNLETNE [C17L]	2.56
YVIGGRNETGYLSSVEMYNLETNE [C17M]	1.78
YVIGGRNETGYLSSVENYNLETNE [C17N]	2.44
YVIGGRNETGYLSSVEPYNLETNE [C17P]	2.23
YVIGGRNETGYLSSVEQYNLETNE [C17Q]	2.43
YVIGGRNETGYLSSVERYNLETNE [C17R]	2.39
YVIGGRNETGYLSSVESYNLETNE [C17S]	2.11
YVIGGRNETGYLSSVETYNLETNE [C17T]	2.56
YVIGGRNETGYLSSVEVYNLETNE [C17V]	1.48
YVIGGRNETGYLSSVEWYNLETNE [C17W]	2.17
YVIGGRNETGYLSSVEYYNLETNE [C17Y]	1.78
YVIGGRNETGYLSSVECANLETNE [Y18A]	2.76
YVIGGRNETGYLSSVECCNLETNE [Y18C]	1.71
YVIGGRNETGYLSSVECDNLETNE [Y18D]	2.77
YVIGGRNETGYLSSVECENLETNE [Y18E]	2.48

Variant	protein stability index
YVIGGRNETGYLSSVECFNLETNE [Y18F]	2.1
YVIGGRNETGYLSSVECGNLETNE [Y18G]	2.57
YVIGGRNETGYLSSVECHNLETNE [Y18H]	2.32
YVIGGRNETGYLSSVECINLETNE [Y18I]	2.5
YVIGGRNETGYLSSVECKNLETNE [Y18K]	1.96
YVIGGRNETGYLSSVECLNLETNE [Y18L]	2.11
YVIGGRNETGYLSSVECMNLETNE [Y18M]	2.4
YVIGGRNETGYLSSVECNNLETNE [Y18N]	2.61
YVIGGRNETGYLSSVECPNLETNE [Y18P]	2.45
YVIGGRNETGYLSSVECQNLETNE [Y18Q]	2.34
YVIGGRNETGYLSSVECRNLETNE [Y18R]	2.6
YVIGGRNETGYLSSVECSNLETNE [Y18S]	2.14
YVIGGRNETGYLSSVECTNLETNE [Y18T]	2.72
YVIGGRNETGYLSSVECVNLETNE [Y18V]	2.05
YVIGGRNETGYLSSVECWNLETNE [Y18W]	2.21
YVIGGRNETGYLSSVECYALETNE [N19A]	2.15
YVIGGRNETGYLSSVECYCLETNE [N19C]	1.57
YVIGGRNETGYLSSVECYDLETNE [N19D]	2.41
YVIGGRNETGYLSSVECYELETNE [N19E]	2.22
YVIGGRNETGYLSSVECYFLETNE [N19F]	3.39
YVIGGRNETGYLSSVECYGLETNE [N19G]	1.7
YVIGGRNETGYLSSVECYHLETNE [N19H]	2.04
